Assay results taken from patent US20260092093A1 (TJ BIOPHARMA SHANGHAI, published 2026).
Positions count from the first letter of the chain named.

B1: IL-18 variant polypeptide M29 (ligand)
chain: YFPKLMSKLSVIRNLNDQVLFIDQGNRPLFEDMTDSDCRDNAPRTIFIISMYKFSDRRGMAVTISVKCEKISTLSCENKIISFKEMNPPDPIKDTKSDIIFFQRSVPGHDNKMQFESSSYEGYFLACEKERDLFKLILKKEDELGDRSIMFTVQNED
B2: IL-18 variant polypeptide MM4 (ligand)
chain: B1 chain with M6R, F54L, D56T, R57I, P91G
B3: IL-18 variant polypeptide M19 (ligand)
chain: B1 chain with M6K, F54H, D56E, R57Q, P91A
B4: IL-18 variant polypeptide M10 (ligand)
chain: B1 chain with M6R, F54Q, D56L, R57W, P91S
B5: IL-18 variant polypeptide M5 (ligand)
chain: B1 chain with P3E, M6T, F54W, D56P, R57W, P91V, R104T, N155K
B6: IL-18 variant polypeptide M18 (ligand)
chain: B1 chain with M6R, F54S, D56R, P91G, R104S
B7: IL-18 variant polypeptide MM2 (ligand)
chain: B1 chain with P3A, M6Y, F54R, D56S, R57L, P91G
B8: IL-18 variant polypeptide M26 (ligand)
chain: B1 chain with M6R, F54H, R57K, P91V, R104Y
B9: IL-18 variant polypeptide MM1 (ligand)
chain: B1 chain with M6K, F54L, D56T, R57Q, P91V
B10: IL-18 variant polypeptide M9 (ligand)
chain: B1 chain with M6R, F54W, D56R, R57A, P91S, R104S
B11: IL-18 variant polypeptide WM2 (ligand)
chain: B1 chain with M6R, F54D, D56Q, R57P, P91N, K96E
B12: IL-18 variant polypeptide M14 (ligand)
chain: B1 chain with P3N, M6K, F54P, D56S, R57S, P91R, R104A
B13: IL-18 variant polypeptide M4 (ligand)
chain: B1 chain with M6K, F54W, D56G, R57V, P91V, R104F
B14: IL-18 variant polypeptide LM5 (ligand)
chain: B1 chain with P3G, M6R, F54W, D56S, R57Q, P91N
B15: IL-18 variant polypeptide M20 (ligand)
chain: B1 chain with M6R, F54S, D56R, R57S, P91G, R104S
B16: IL-18 variant polypeptide M1 (ligand)
chain: B1 chain with M6K, F54H, P91V, R104V
B17: IL-18 variant polypeptide M16 (ligand)
chain: B1 chain with M6R, F54S, D56R, R57N, P91G, R104S
B18: IL-18 variant polypeptide M25 (ligand)
chain: B1 chain with M6R, F54L, D56T, R57T, P91R
B19: IL-18 variant polypeptide M22 (ligand)
chain: B1 chain with M6R, F54Y, D56R, R57G, P91K, R104S
B20: IL-18 variant polypeptide LM4 (ligand)
chain: B1 chain with M6K, F54H, D56Y, R57S, P91N
B21: IL-18 variant polypeptide M3 (ligand)
chain: B1 chain with M6K, F54W, D56H, R57V, P91A, R104Y
B22: IL-18 variant polypeptide M6 (ligand)
chain: B1 chain with M6R, F54W, D56T, R57P, P91V, R104T
B23: IL-18 variant polypeptide MM6 (ligand)
chain: B1 chain with P3A, M6Y, F54R, D56S, R57L, P91A
B24: IL-18 variant polypeptide M2 (ligand)
chain: B1 chain with P3S, M6K, F54W, D56P, R57D, P91G, R104T
B25: IL-18 variant polypeptide M7 (ligand)
chain: B1 chain with M6R, F54H, D56T, R57A, P91A
B26: IL-18 variant polypeptide WM6 (ligand)
chain: B1 chain with P3D, M6K, F54D, D56Q, R57P, P91S
B27: IL-18 variant polypeptide M23 (ligand)
chain: B1 chain with M6R, F54Y, D56T, P91N

molecular target: T1, hIL-18 receptor (hIL-18Rα and hIL-18Rβ) (human, UniProt Q13478 19-541; O95256 20-599); test: cell-based or functional assay
T1 sequence (looked up) 1: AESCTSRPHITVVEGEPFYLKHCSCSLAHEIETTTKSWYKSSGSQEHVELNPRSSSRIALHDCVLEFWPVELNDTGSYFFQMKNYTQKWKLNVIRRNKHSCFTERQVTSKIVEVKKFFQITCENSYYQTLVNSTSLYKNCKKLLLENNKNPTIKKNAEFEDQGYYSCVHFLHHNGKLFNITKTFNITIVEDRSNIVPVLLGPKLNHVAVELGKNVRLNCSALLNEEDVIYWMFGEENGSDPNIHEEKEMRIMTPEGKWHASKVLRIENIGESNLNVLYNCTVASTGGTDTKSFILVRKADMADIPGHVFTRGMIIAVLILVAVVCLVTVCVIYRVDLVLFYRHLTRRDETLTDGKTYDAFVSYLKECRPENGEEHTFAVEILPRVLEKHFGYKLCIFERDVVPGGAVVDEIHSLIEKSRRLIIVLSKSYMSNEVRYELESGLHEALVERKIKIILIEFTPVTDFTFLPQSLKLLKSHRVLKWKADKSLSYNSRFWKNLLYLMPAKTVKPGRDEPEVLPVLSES
T1 sequence (looked up) 2: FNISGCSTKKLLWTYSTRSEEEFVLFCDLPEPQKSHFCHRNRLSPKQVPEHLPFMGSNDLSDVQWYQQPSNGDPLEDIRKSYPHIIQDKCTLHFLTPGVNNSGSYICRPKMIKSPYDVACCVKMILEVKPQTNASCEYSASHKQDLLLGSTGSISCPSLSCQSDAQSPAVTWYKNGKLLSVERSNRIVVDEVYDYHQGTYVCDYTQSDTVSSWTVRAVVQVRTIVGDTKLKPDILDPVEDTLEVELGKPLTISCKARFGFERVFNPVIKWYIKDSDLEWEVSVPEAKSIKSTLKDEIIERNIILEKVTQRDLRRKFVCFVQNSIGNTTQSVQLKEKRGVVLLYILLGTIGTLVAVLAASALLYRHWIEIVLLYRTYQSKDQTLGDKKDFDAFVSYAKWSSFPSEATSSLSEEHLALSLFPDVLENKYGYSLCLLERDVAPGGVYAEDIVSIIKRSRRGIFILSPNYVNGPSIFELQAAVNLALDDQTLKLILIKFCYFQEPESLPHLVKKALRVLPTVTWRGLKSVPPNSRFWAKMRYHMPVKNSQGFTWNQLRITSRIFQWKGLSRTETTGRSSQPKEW

| Binder | EC50 (nM), hIL-18 reporter assay [nM] |
| --- | --- |
| B1 | 4.8 |
| B2 | 0.13 |
| B3 | 0.66 |
| B4 | 0.29 |
| B5 | 0.22 |
| B6 | 0.58 |
| B7 | 0.93 |
| B8 | 0.068 |
| B9 | 0.97 |
| B10 | 0.43 |
| B11 | 10.7 |
| B12 | 0.04 |
| B13 | 0.018 |
| B14 | 0.13 |
| B15 | 2.2 |
| B16 | 1.45 |
| B17 | 0.29 |
| B18 | 0.58 |
| B19 | 7.2 |
| B20 | 0.16 |
| B21 | 0.24 |
| B22 | 0.18 |
| B23 | 1 |
| B24 | 0.27 |
| B25 | 0.15 |
| B26 | 0.06 |
| B27 | 0.8 |

molecular target: T2, hIL-18BP-hFc (human, UniProt O95998 31-194, limits assumed); test: cell-based or functional assay
T2 sequence (looked up): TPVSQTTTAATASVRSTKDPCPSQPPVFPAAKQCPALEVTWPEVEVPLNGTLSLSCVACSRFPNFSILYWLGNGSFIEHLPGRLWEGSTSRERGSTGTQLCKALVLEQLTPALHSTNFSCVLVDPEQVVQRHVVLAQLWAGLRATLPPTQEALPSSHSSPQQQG

| Binder | EC50 (nM) in the Presence of 1 µg/mL hIL-18BP-hFc, hIL-18 reporter assay [nM] | EC50 Fold Change (+BP/-BP), hIL-18 reporter assay [fold] |
| --- | --- | --- |
| B1 | 1.9 | 0.4 |
| B2 | 0.43 | 3.31 |
| B3 | 0.31 | 0.47 |
| B4 | 0.17 | 0.59 |
| B5 | 0.21 | 0.95 |
| B6 | 0.56 | 0.97 |
| B7 | 2.24 | 2.41 |
| B8 | 0.094 | 1.38 |
| B9 | 0.81 | 0.84 |
| B10 | 0.33 | 0.77 |
| B11 | 14.2 | 1.32 |
| B12 | 0.03 | 0.75 |
| B13 | 0.025 | 1.39 |
| B14 | 0.12 | 0.92 |
| B15 | 0.5 | 0.23 |
| B16 | 3.45 | 2.38 |
| B17 | 0.34 | 1.17 |
| B18 | 1.15 | 1.98 |
| B19 | 7.5 | 1.04 |
| B20 | 0.17 | 1.06 |
| B21 | 0.37 | 1.54 |
| B22 | 0.14 | 0.78 |
| B23 | 1.5 | 1.5 |
| B24 | 0.19 | 0.7 |
| B25 | 0.25 | 1.67 |
| B26 | 0.74 | 12.3 |
| B27 | 1.4 | 1.75 |

molecular target: T1, hIL-18 receptor (hIL-18Rα and hIL-18Rβ); test: cell-based or functional assay; remark: another data set of the same source

| Binder | EC50 (nM), PBMC assay (hIFNγ release) [nM] |
| --- | --- |
| B1 | 0.14 |

molecular target: T2, hIL-18BP-hFc; test: cell-based or functional assay; remark: another data set of the same source

| Binder | EC50 (nM) in the Presence of 1 µg/mL hIL-18BP-hFc, PBMC assay (hIFNγ release) [nM] | EC50 Fold Change (+BP/-BP), PBMC assay (hIFNγ release) [fold] |
| --- | --- | --- |
| B1 | 0.096 | 0.69 |
| B26 | ~0.04 | – |
